Experiment [1] concerns the target fibrinogen (human plasma) (human) (UniProt P02671). The experiment in a line: affinity chromatography of 5 ml plasma on 0.8 ml peptide resin column.
In experiment [2] the target is vWF/fVIII complex (human plasma) (human) (UniProt P04275). The experiment can be described thus: batch binding of pooled human plasma to peptide resin, then column elution; fVIII chromogenic assay.
The target is the same in experiment [3]. The experiment in a line: batch binding of pooled human plasma to peptide resin, then column elution; fVIII coagulation assay.
Experiment [4] shares this target. The experiment can be described thus: batch binding of pooled human plasma to peptide resin, then column elution; load 8.46 IU; fVIII coagulation assay.
The target is the same in experiment [5]. The experiment can be described thus: batch binding of 20 ml pooled human plasma to 0.8 ml peptide resin, then column elution; load 21.4 IU; fVIII chromogenic assay.
Experiment [6] has as its target fibrinogen (human plasma) (human) (UniProt P02671). The experiment in a line: affinity chromatography of plasma on peptide resin, ligand density 0.67-0.94 mmol/g resin.
Experiment [7] shares this target. The experiment in a line: affinity chromatography of plasma on peptide resin, Evaluation 1; nephelometric fibrinogen antigen.
The target is the same in experiment [8]. The experiment can be described thus: affinity chromatography of plasma on peptide resin, Evaluation 2; nephelometric fibrinogen antigen.
Experiment [9] has the same target. The experiment can be described thus: affinity chromatography of plasma on peptide resin, Evaluation 1, load 51 mg; nephelometric fibrinogen antigen.
The target is the same in experiment [10]. The experiment can be described thus: affinity chromatography of plasma on peptide resin, Evaluation 2, load 51 mg; nephelometric fibrinogen antigen.
For a further experiment, the target named is T1, albumin (human plasma) (human, UniProt P02768 25-609).
T1 construct: mature
The experiment can be described thus: affinity chromatography of fibrinogen- and Apo-A1-depleted plasma on peptide resin, 0.020 M sodium citrate; nephelometry. As for the experimental part: Fibrinogen and Apo-A1 lipoprotein-depleted plasma (prepared in Example 5) was loaded at a linear velocity of 30 cm/hour (0.4 ml/min; RT=5.1) onto 2.0 ml column (CF=0.785 cm²) that had been equilibrated with 0.14 M NaCl, 0.020 M sodium citrate, pH 7.0 (EQ buffer). After the column was washed with EQ buffer and 2.0 M NaCl, 0.020 M sodium citrate, pH 6.0, to baseline, the API protein was eluted with 2.0 M NaCl, 1% Tween 20, 0.020 M sodium citrate, pH 6.0. The column was regenerated with 2.0 M guanidine-HCl, 2% Sarkosyl and 2% acetic acid and stored in 20% methanol. […] Not all of the API was quantitatively eluted, but could be eluted using 2M guanidine. Purification of API protein to approximately 70% purity was accomplished with ligand HFVAPH (SEQ ID NO: 46) (isolated from an L-Library).

Non-standard residues stand in square brackets, D forms with d. No end group written: not given here. 2Nal = N[C@@H](Cc1ccc2ccccc2c1)C(=O)O; Ahx = NCCCCCC(=O)O

“HWQ (SEQ ID NO: 7) peptide attached to a chromatography resin”: in [1], the dynamic resin capacity lay within 5 to 8 mg.

In experiment [2], EAD[2Nal]ED (not fully specified (C-terminus)) [D-EADna2′ED (SEQ ID NO: 66) resin] registered an FVIII recovery in elution 1, 0.75 M NaCl (%), chromogenic assay of 21.5%; an FVIII recovery in elution 2, 1.0 M NaCl (%), chromogenic assay of 0%; an FVIII recovery in flow-through (%), chromogenic assay of 7.5%; an FVIII recovery in wash, 0.5 M NaCl (%), chromogenic assay of 5.6%. In [2], this molecule gave a total FVIII in elution 1, 0.75 M NaCl (IU), chromogenic assay of 4.6 IU; a total FVIII in elution 2, 1.0 M NaCl (IU), chromogenic assay of 0 IU; a total FVIII in wash, 0.5 M NaCl (IU), chromogenic assay of 1.2 IU. In experiment [3], the FVIII recovery in elution 1, 0.75 M NaCl (%), coagulation assay turned out to be 46%; the FVIII recovery in elution 2, 1.0 M NaCl (%), coagulation assay stood at 0%; the FVIII recovery in flow-through (%), coagulation assay came to 18.9%; the FVIII recovery in wash, 0.5 M NaCl (%), coagulation assay stood at 0%. In addition, in experiment [3], the total FVIII in elution 1, 0.75 M NaCl (IU), coagulation assay was found to be 3.9 IU; the total FVIII in elution 2, 1.0 M NaCl (IU), coagulation assay stood at 0 IU; the total FVIII in wash, 0.5 M NaCl (IU), coagulation assay amounted to 0 IU. Further, in [4], the total FVIII in flow-through (IU), coagulation assay stood at 1.6 IU. Further, the total FVIII in flow-through (IU), chromogenic assay in experiment [5] was 1.6 IU.

Take [dA]RQFDF[Ahx] (also: D- prefix in name, which residues are D is not settled) [D-ARQFDF (SEQ ID NO: 20) peptide displayed on ToyoPearl AF-Amino 650 M resin]: in experiment [6], the dynamic resin capacity is 6 to 8 g/L of resin. Moreover, the fibrinogen in flow thru + post wash in experiment [7] and in experiment [8] was below 0.15 mg/mL throughout. Besides, the figures for the recovery of fibrinogen in elution (%) in [7] and in [8] were 91% and 100%, respectively. The total fibrinogen in elution in experiment [9] turned out to be 46 mg; in experiment [10], 54 mg.

HFVAPH (also: immobilised on resin via C-terminus, Immobilised on chromatography resin) [L-HFVAPH (SEQ ID NO: 46) peptide ligand displayed on resin]: the binding result with albumin (human plasma) is listed as “no binding”.

The values above are taken from patent US20030212253A1 (AMERICAN NATIONAL RED CROSS, published 2003).
